According to PMC7269131:

Biological target: Factor XIIIA (the A-subunit of coagulation Factor XIII), zymogen (UniProt P00488)
Assay: AUC

## Factor XIIIA (the A-subunit of coagulation Factor XIII), zymogen (from UniProt P00488 1-732) (enzyme)
  percent dissociated to monomers after 6 h in 25 mM CaCl2: 80%
